From the MegaScale stability set (Tsuboyama et al. 2023)

B1: HHH_rd1_0493 (parent)
chain: RDEDEKEKIKEALKRGNEDKAKEIAKRANVSPEEYERLRKEAE

Variants of: B1
Assay: folding stability dG (cDNA display proteolysis); higher = more stable
Settings: PBS, room temperature

**Q.** With RDEDEKEKIKEALKRGNEDKAKEIAKNANVSPEEYERLRKEAE [R27N] as the variant, how does the “folding stability dG” value read?
**A.** 2.83 kcal/mol

**Q.** For RDEDEKEKIKEALKRGNEDKAKEITKRANVSPEEYERLRKEAE [A25T], which “folding stability dG” value is on record?
**A.** 1.01 kcal/mol

**Q.** With KDEDEKEKIKEALKRGNEDKAKEIAKRANVSPEEYERLRKEAE [R1K] as the variant, how does the “folding stability dG” value read?
**A.** 3.12 kcal/mol

**Q.** With RDEQEKEKIKEALKRGNEDKAKEIAKRANVSPEEYERLRKEAE [D4Q] as the variant, how does the “folding stability dG” value read?
**A.** 2.88 kcal/mol

**Q.** For RDEDEKEKIKEALKRGNEDKAKEIAKRVNVSPEEYERLRKEAE [A28V], which “folding stability dG” value is on record?
**A.** 2.32 kcal/mol

**Q.** Which “folding stability dG” value does the source give for RDEDEKEKIKEALKRGNEDKAKEYAKRANVSPEEYERLRKEAE [I24Y] here?
**A.** 1.73 kcal/mol

**Q.** For RDEDEKEKIKEALKRGNEDKAKEIAKRANVSPEEYERLRKEAM [E43M], which “folding stability dG” value is on record?
**A.** 3.31 kcal/mol

**Q.** For RDEDEKEKIKEALKRGNEDKAKEIAKRANCSPEEYERLRKEAE [V30C], which “folding stability dG” value is on record?
**A.** 1.69 kcal/mol

**Q.** Which “folding stability dG” value does the source give for RDEDEKEKIKEALKRGNEDKMKEIAKRANVSPEEYERLRKEAE [A21M] here?
**A.** 0.506 kcal/mol

**Q.** Which “folding stability dG” value does the source give for RDEDEKEKIKEALKRGNEDKAKEIAKRANVSPEQYERLRKEAE [E34Q] here?
**A.** 1.68 kcal/mol

**Q.** With RDEDEKEKIKEALKRGNEDKAKEIAKRANVSPEEYERLRKKAE [E41K] as the variant, how does the “folding stability dG” value read?
**A.** 1.99 kcal/mol

**Q.** Which “folding stability dG” value does the source give for RDEDEKEKIKQALKRGNEDKAKEIAKRANVSPEEYERLRKEAE [E11Q] here?
**A.** 2.83 kcal/mol

**Q.** With RDEDEKEKIKEALKRENEDKAKEIAKRANVSPEEYERLRKEAE [G16E] as the variant, how does the “folding stability dG” value read?
**A.** 1.19 kcal/mol

**Q.** For RDEDEKEKIKEALKRGNEDKAKEIAKRANVRPEEYERLRKEAE [S31R], which “folding stability dG” value is on record?
**A.** 1.87 kcal/mol

**Q.** With RDEDEKEKIKEALKRGNEDKAKEWAKRANVSPEEYERLRKEAE [I24W] as the variant, how does the “folding stability dG” value read?
**A.** 1.34 kcal/mol

**Q.** With RDEDEKEKIKEALKRGNEDKKKEIAKRANVSPEEYERLRKEAE [A21K] as the variant, how does the “folding stability dG” value read?
**A.** 0.184 kcal/mol

**Q.** Which “folding stability dG” value does the source give for RDEDEKEKIKEALKRGNEDKAKEIAERANVSPEEYERLRKEAE [K26E] here?
**A.** 2.83 kcal/mol

**Q.** For RDEDEKEKIKEALKRGNEDVAKEIAKRANVSPEEYERLRKEAE [K20V], which “folding stability dG” value is on record?
**A.** 3.24 kcal/mol

**Q.** For RDEDEKEKIKEALKRGNEDKAKEIAKRANVSPEEKERLRKEAE [Y35K], which “folding stability dG” value is on record?
**A.** 0.009 kcal/mol

**Q.** With RDEDEKEKIKEALKRGNEDKAKEIAKRAGVSPEEYERLRKEAE [N29G] as the variant, how does the “folding stability dG” value read?
**A.** 3.3 kcal/mol

**Q.** For RDEDEKEKIKEALKRGNEDKAKEIAKRANVSPEEYEVLRKEAE [R37V], which “folding stability dG” value is on record?
**A.** 2.24 kcal/mol

**Q.** Which “folding stability dG” value does the source give for RDEDEKEKIKEALKRGNEDKAKEIAKRANVSEEEYERLRKEAE [P32E] here?
**A.** 2.85 kcal/mol

**Q.** For RDEDEKEKIKEALKRGNEDKAKEIAKRANVSPEEYERLRKMAE [E41M], which “folding stability dG” value is on record?
**A.** 2.58 kcal/mol

**Q.** Which “folding stability dG” value does the source give for RDEDEKEKIKEALKRGNEDKLKEIAKRANVSPEEYERLRKEAE [A21L] here?
**A.** 0.541 kcal/mol

**Q.** For RDEDEKEKIKEALKRGNEDKAKEIAKRANVSPEEYEGLRKEAE [R37G], which “folding stability dG” value is on record?
**A.** 1.77 kcal/mol

**Q.** With RDEDEKEKIKEALKRGNEDKAKEIAKRANVSPVEYERLRKEAE [E33V] as the variant, how does the “folding stability dG” value read?
**A.** 2.22 kcal/mol

**Q.** With RDEDEKEKIKEALKRGNEDKAKEIAKRANVSPEEYERYRKEAE [L38Y] as the variant, how does the “folding stability dG” value read?
**A.** 1.85 kcal/mol

**Q.** With RDEDEKEKIKEALKRGNEDKAKEIAKRANVSPEEYERLRKWAE [E41W] as the variant, how does the “folding stability dG” value read?
**A.** 2.38 kcal/mol

**Q.** With RDEDEKEKIKEALKRGNEDKAKEIAKCANVSPEEYERLRKEAE [R27C] as the variant, how does the “folding stability dG” value read?
**A.** 2 kcal/mol

**Q.** For RDEDEKEKIKEALKRGNEDKAKEIAKRANVSPEEYEYLRKEAE [R37Y], which “folding stability dG” value is on record?
**A.** 2.05 kcal/mol

**Q.** With RDEDEKFKIKEALKRGNEDKAKEIAKRANVSPEEYERLRKEAE [E7F] as the variant, how does the “folding stability dG” value read?
**A.** 3 kcal/mol

**Q.** With RDEDEKDKIKEALKRGNEDKAKEIAKRANVSPEEYERLRKEAE [E7D] as the variant, how does the “folding stability dG” value read?
**A.** 2.7 kcal/mol

**Q.** Which “folding stability dG” value does the source give for RDEDEKEKIKEALGRGNEDKAKEIAKRANVSPEEYERLRKEAE [K14G] here?
**A.** 1.98 kcal/mol

**Q.** With RDEDEKEKIKEADKRGNEDKAKEIAKRANVSPEEYERLRKEAE [L13D] as the variant, how does the “folding stability dG” value read?
**A.** 0.379 kcal/mol

**Q.** For RDEDEKEKIKKALKRGNEDKAKEIAKRANVSPEEYERLRKEAE [E11K], which “folding stability dG” value is on record?
**A.** 2.24 kcal/mol

**Q.** For RDEDEKEKIKEALKRGNEDKAKEIAKRANVSPEEAERLRKEAE [Y35A], which “folding stability dG” value is on record?
**A.** 0.298 kcal/mol

**Q.** For RDEDEKEKIKEALKRGNEDKAKEIAKRANVSPEEYERHRKEAE [L38H], which “folding stability dG” value is on record?
**A.** 0.352 kcal/mol

**Q.** For RDEDEKEKIKEALKRGNEDKAKEIAKHANVSPEEYERLRKEAE [R27H], which “folding stability dG” value is on record?
**A.** 2.61 kcal/mol

**Q.** With RDEDEKEKIKEALARGNEDKAKEIAKRANVSPEEYERLRKEAE [K14A] as the variant, how does the “folding stability dG” value read?
**A.** 2.53 kcal/mol

**Q.** Which “folding stability dG” value does the source give for RDEDEKEKIKEALKRGLEDKAKEIAKRANVSPEEYERLRKEAE [N17L] here?
**A.** 3.13 kcal/mol

**Q.** For ADEDEKEKIKEALKRGNEDKAKEIAKRANVSPEEYERLRKEAE [R1A], which “folding stability dG” value is on record?
**A.** 3.23 kcal/mol

**Q.** Which “folding stability dG” value does the source give for RDEDEKEKIKEALKRGNEDKAPEIAKRANVSPEEYERLRKEAE [K22P] here?
**A.** 0.613 kcal/mol

**Q.** With RDEDEKEKQKEALKRGNEDKAKEIAKRANVSPEEYERLRKEAE [I9Q] as the variant, how does the “folding stability dG” value read?
**A.** 0.476 kcal/mol

**Q.** Which “folding stability dG” value does the source give for RDEDEKENIKEALKRGNEDKAKEIAKRANVSPEEYERLRKEAE [K8N] here?
**A.** 2.55 kcal/mol

**Q.** For RDEDEKEKIKPALKRGNEDKAKEIAKRANVSPEEYERLRKEAE [E11P], which “folding stability dG” value is on record?
**A.** 0.82 kcal/mol

**Q.** For RDEDEKEKIKEALKRGNEDKAKEIAKRMNVSPEEYERLRKEAE [A28M], which “folding stability dG” value is on record?
**A.** 2.64 kcal/mol

**Q.** With RDEDEKEKIKEALKRGNEDKAKEIAKAANVSPEEYERLRKEAE [R27A] as the variant, how does the “folding stability dG” value read?
**A.** 3.04 kcal/mol

**Q.** Which “folding stability dG” value does the source give for RDEDEKEKIKEALKRGNEDKAKESAKRANVSPEEYERLRKEAE [I24S] here?
**A.** 0.921 kcal/mol

**Q.** Which “folding stability dG” value does the source give for RDEDEKEKIKEALKRGNEDKAKEIAKRANVSPEEYNRLRKEAE [E36N] here?
**A.** 2.19 kcal/mol

**Q.** Which “folding stability dG” value does the source give for RDEDEKEKIKEALKRGNEDKAKEIAKRANVSPEEYERLRKEAR [E43R] here?
**A.** 2.72 kcal/mol

**Q.** With RDEDEKEKIKEALKRGNEDKAKEIAMRANVSPEEYERLRKEAE [K26M] as the variant, how does the “folding stability dG” value read?
**A.** 2.91 kcal/mol

**Q.** For GDEDEKEKIKEALKRGNEDKAKEIAKRANVSPEEYERLRKEAE [R1G], which “folding stability dG” value is on record?
**A.** 3.1 kcal/mol

**Q.** With RDEDEKEKIWEALKRGNEDKAKEIAKRANVSPEEYERLRKEAE [K10W] as the variant, how does the “folding stability dG” value read?
**A.** 1.57 kcal/mol

**Q.** With RDEDEKEKIKEALKRGNEDKAKEIPKRANVSPEEYERLRKEAE [A25P] as the variant, how does the “folding stability dG” value read?
**A.** 0.533 kcal/mol

**Q.** With RDEDEKEKIKEALKRGNEDKAKEIAKRANVSPEEYERLRKEAN [E43N] as the variant, how does the “folding stability dG” value read?
**A.** 2.59 kcal/mol

**Q.** For RDEDEKEKIKEALKRGNEDKAKEIAKRTNVSPEEYERLRKEAE [A28T], which “folding stability dG” value is on record?
**A.** 2.25 kcal/mol

**Q.** With RDEDEKEKIKEALKRGNEDKAKEIAKRKNVSPEEYERLRKEAE [A28K] as the variant, how does the “folding stability dG” value read?
**A.** 1.82 kcal/mol

**Q.** Which “folding stability dG” value does the source give for RDEDEKEKIKEALKRGNEDKAKEIAKRANVSPEEYERLRKSAE [E41S] here?
**A.** 2.05 kcal/mol

**Q.** Which “folding stability dG” value does the source give for RREDEKEKIKEALKRGNEDKAKEIAKRANVSPEEYERLRKEAE [D2R] here?
**A.** 2.79 kcal/mol
